Reference: patent publication US11572572B2, “A138T mutation-containing plant EPSPS mutant, and encoding gene and application thereof” (GEVOTO LLC, priority 2017, dated 2023)

Legend:
[1] = tested on: transgenic rice seedlings; test: Glyphosate resistance of EPSPS mutants in transgenic rice sprayed with glyphosate (Example 8); type: in vivo, rice (Nipponbare)
Excerpt: The glyphosate resistance of the EPSPS mutants of the above examples in transgenic rice was detected by the following method.
Plasmids of monoclonal resistant strain comprising pADV5-EPSPS of Examples 1-4 (containing the EPSPS mutant genes) were extracted in accordance with a conventional method. They were subjected to double enzymatic digestion with Pacl and BstEII to recover small fragments, and then the small fragments were ligated, using T4 DNA ligase, to a pGVP1 vector subjected to double enzymatic digestion in the same manner, to obtain a pGVP1-EPSPS vector having a structure as shown in FIG. 8.
The pGVP1-EPSPS vector was transformed into EHA105 (Agrobacterium tumefaciens) competent cells, and single clones were picked out for colony PCR detection to obtain positive strains. Then, the positive strains were inoculated into and propagated in 1 mL of a YEP medium containing 50 μg·mL^−1 kanamycin and 50 μg·mL^−1 rifampicin, and stored at −80° C. or used in subsequent experiments.
400 ul of a strain containing the target gene vector stored at −80° C. was added to a culture dish with a solid medium containing YEP+50 μg/mL rifampicin+50 μg/mL kanamycin and cultured in the dark at 28° C. for 24 hours, and then the bacterium was added to an infection medium and adjusted to OD=0.2 as an infection solution.
Disinfection and Pre-culture: seeds of mature rice (Nipponbare) were manually dehulled. Full seeds with no bacterial plaques were selected and disinfected in accordance with the following steps: the seeds were placed in a 50 ml sterile centrifuge tube and disinfected with the added 70% ethanol in water for 30 seconds, ethanol solution was poured out, and the seeds were washed once with sterile water; 10 to 20 ml of 2.6% sodium hypochlorite solution was added to soak and disinfect the seeds for 20 minutes. The sodium hypochlorite solution was poured out, and the seeds were soaked and washed with sterile water for 6 or 7 times, for 3 minutes each time.
Induction and Subculture: the seeds were placed on and blotted with sterile filter paper, and the mature embryos were placed in an induction medium, with 12 embryos per dish. After the operation was completed, the culture dishes were sealed with parafilm and underwent culturing in the dark at 30° C. for 21 to 28 days. Callus tissue was transferred to a fresh medium and continued to be cultured for about 7 to 14 days. Spherical callus tissue with a dimension of 1 to 2 mm was taken as an infection receptor.
The callus tissue was placed into a centrifuge tube or culture cup, infected in the prepared Agrobacterium suspension added thereto for 10 minutes, and shaken several times during the period; the bacterial solution was poured out, the callus tissue was taken out and placed on sterile filter paper for absorbing the bacterial solution from its surface (for about 30 minutes); the callus tissue was placed on sterile filter paper in culture dishes and cultured in the dark at 25° C. for 2 or 3 days.
Recovery Culture: the co-cultured callus tissue was inoculated on a recovery medium and cultured in the dark at 30° C. for 5 to 7 days.
Primary Screening: the callus was transferred to screening medium 1 (51) and cultured in the dark at 30° C. for 14 days.
Secondary Screening: the callus was then transferred to screening medium 2 (S2) and cultured in the dark at 30° C. for 14 days.
Primary Differentiation: the screened resistant callus tissue was transferred to a differentiation medium and cultured for about 21 days at 30° C. under exposure to light for 19 hours.
Secondary Differentiation: new young shoots were selected and moved to a fresh differentiation medium and continued to be cultured for about 21 days.
When the new seedlings grew to about 2 cm, they were moved to a rooting medium and cultured for 3 to 4 weeks at 30° C. under exposure to light (for 16/8 h). […]

[2] = tested on: double-knockout Escherichia coli (EDCE); test: Growth of double-knockout E. coli (EDCE) transformed with Triticum aestivum EPSPS genes in glyphosate media (Example 7); type: cell-based
Experimental: An Escherichia coli strain transformed with the Triticum aestivum EPSPS mutant-encoding gene according to Example 4 was used as an experimental group.
An Escherichia coli strain transformed with a wild-type Triticum aestivum EPSPS-encoding gene (SEQ ID NO: 20, encoding wild-type Triticum aestivum EPSPS set forth in SEQ ID NO: 10 was used as Control Group 1.
The growth statuses of the transformed Escherichia coli strains in media containing different concentrations of glyphosate (0, 1, 20 mM) were detected to verify the glyphosate resistance of the Triticum aestivum EPSPS mutant-encoding gene and the encoded Triticum aestivum EPSPS mutant in Escherichia coli. Here, the Escherichia coli strain used was double-knockout Escherichia coli (Escherichia coli strain DH5a from which an EPSPS gene and a C-P Lyase gene were knocked out, named EDCE, which may be prepared by a method with reference to Chinese Patent Application. 2016103256926).

[3] = tested on: double-knockout Escherichia coli strain (EDCE); test: Growth of double-knockout E. coli (EDCE) transformed with Oryza sativa EPSPS genes in glyphosate media (Example 5); type: cell-based; conditions: for growth status of transformed Escherichia coli: Example 5, FIG. 1
Excerpt: An Escherichia coli strain transformed with the Oryza sativa EPSPS mutant I-encoding gene according to Example 1 was used as Experimental Group 1 (having only the A155(138)T mutation).
An Escherichia coli strain transformed with the Oryza sativa EPSPS mutant II-encoding gene according to Example 2 was used as Experimental Group 3 (having the G111(96)A mutation and A155(138)T mutation).
An Escherichia coli strain transformed with a wild-type Oryza sativa EPSPS-encoding gene (SEQ ID NO: 14, encoding wild-type Oryza sativa EPSPS set forth in SEQ ID NO: 5) was used as a control group.
The glyphosate resistance of the Oryza sativa EPSPS mutant I-encoding gene and the encoded Oryza sativa EPSPS mutant I in Escherichia coli, and the glyphosate resistance of the Oryza sativa EPSPS mutant II-encoding gene and the encoded Oryza sativa EPSPS mutant II in Escherichia coli were verified by detecting the growth statuses of the transformed Escherichia coli in media containing different concentrations of glyphosate (0 mM, 1 mM, 2 mM, 20 mM) (media obtained by using M9 as a basal medium and then adding certain concentrations of antibiotics Spec (Spectinomycin), Gen (Gentamycin), and Amp (Ampicillin) and different concentrations of glyphosate).
Here, the Escherichia coli strain used was an double-knockout Escherichia coli strain (Escherichia coli strain DH5a from which an EPSPS gene and a C-P Lyase gene were knocked out, named EDCE, which may be prepared by a method with reference to Chinese Patent Application No. 2016103256926).
The detection was carried out by a method well known in the art, which was briefly described below. Gene encoding Oryza sativa EPSPS mutants was synthesized by a chemical synthesis method, wherein enzymatic digestion sites (Pacl and Sbfl) were introduced at both ends of the gene. The gene were enzymatically cleaved and then ligated in the presence of ligase to an expression vector (e.g., pADV5 vector having a structure as shown in FIG. 4) subjected to the same enzymatic digestion treatment, and then were transformed into the double-knockout Escherichia coli strain. After verification, positive clones were picked out and inoculated and grown in media containing glyphosate. The growth statuses were observed.

[4] = 1X dose glyphosate (1,060 g/ha), day 10 after spraying
[5] = 2X dose glyphosate (2,120 g/ha) on survivors of 1X, after another 10 days
[6] = 5X dose glyphosate (5,300 g/ha) on survivors of 2X, after additional 10 days
[7] = 20X dose glyphosate (21,200 g/ha) on survivors of 5X, after further 10 days

Molecule	% ++&+++ (percentage of moderately and highly glyphosate resistant plants in total plants observed) [1, 4]	plant number with resistance + (low glyphosate resistant) [1, 4]	plant number with resistance ++ (moderately glyphosate resistant) [1, 4]	plant number with resistance +++ (highly glyphosate resistant) [1, 4]	% ++&+++ (percentage of moderately and highly glyphosate resistant plants in total plants observed) [1, 5]	plant number with resistance + (low glyphosate resistant) [1, 5]	plant number with resistance ++ (moderately glyphosate resistant) [1, 5]	plant number with resistance +++ (highly glyphosate resistant) [1, 5]	plant number with resistance − (non-glyphosate resistant, withered or dead) [1, 5]	% ++&+++ (percentage of moderately and highly glyphosate resistant plants in total plants observed) [1, 6]	plant number with resistance + (low glyphosate resistant) [1, 6]	plant number with resistance ++ (moderately glyphosate resistant) [1, 6]	plant number with resistance +++ (highly glyphosate resistant) [1, 6]	plant number with resistance − (non-glyphosate resistant, withered or dead) [1, 6]	% ++&+++ (percentage of moderately and highly glyphosate resistant plants in total plants observed) [1, 7]	plant number with resistance + (low glyphosate resistant) [1, 7]	plant number with resistance ++ (moderately glyphosate resistant) [1, 7]	plant number with resistance +++ (highly glyphosate resistant) [1, 7]	plant number with resistance − (non-glyphosate resistant, withered or dead) [1, 7]	also measured
T2: Triticum aestivum EPSPS mutant containing G113(96)A, P118(101)S, and A157(138)T (SEQ ID NO: 11), gene SEQ ID NO: 22; experimental group of Example 7 (protein, Triticum aestivum EPSPS mutant with mutations G113(96)A, P118(101)S, and A157(138)T) MATSVAAPAAPAGAEEVVLQPIREISGAVQLPGSKSLSNRILLLSALSEGTTVVDNLLNSEDVHYMLEALEALGLSVEADKVAKRAVVVGCGGRFPVEKDAKEEVKLFLGNAATAMRSLTAAVVAAGGNATYVLDGVPRMRERPIGDLVVGLQQLGTDVDCFLGTNCPPVRINGKGGLPGGKVKLSGSISSQYLSSLLMAAPLALEDVEIEIIDKLISVPYVEMTLKLMEHFGVTAEHSDSWDRFYIKGGQKYKSPGNAYVEGDASSASYFLAGAAITGGTVTVEGCGTTSLQGDVKFAEVLEMMGAKVTWTDTSVTVTGPPRQPFGRKHLKAVDVNMNKMPDVAMTLAVVALFADGPTAIRDVASWRVKETERMVAIRTELTKLGATVEEGPDYCIITPPEKLNITAIDTYDDHRMAMAFSLAACAEVPVTIRDPGCTRKTFPNYFDVLSTFVKN	75.0%	2	4	20	59.4%	3	2	17	10	50.0%	5	14	2	11	21.9%	11	7	0	14	level of glyphosate resistance of transformed rice seedlings compared with the mutant lacking the A138T mutation (R4 for R5, T1 for T2) (in words) ([1]; each of 1×, 2×, 5×, and 20× glyphosate doses): higher levels of glyphosate resistance; glyphosate concentration of medium in which the E. coli strain was kept in a growing state [2]: up to 20 mM
R3: Oryza sativa EPSPS mutant II with G111(96)A and A155(138)T (SEQ ID NO: 7), encoding gene SEQ ID NO: 17 (protein, Oryza sativa EPSPS mutant with mutations G111(96)A and A155(138)T) MASNAAAAAAKAEEIVLQPIREISGAVQLPGSKSLSNRILLLSALSEGTTVVDNLLNSEDVHYMLEALKALGLSVEADKVAKRAVVVGCGGKFPVEKDAKEEVQLFLGNAATAMRPLTAAVTAAGGNATYVLDGVPRMRERPIGDLVVGLKQLGTDVDCFLGTECPPVRVKGIGGLPGGKVKLSGSISSQYLSALLMAAPLALGDVEIEIIDKLISIPYVEMTLRLMERFGVKAEHSDSWDRFYIKGGQKYKSPGNAYVEGDASSASYFLAGAAITGGTVTVQGCGTTSLQGDVKFAEVLEMMGAKVTWTDTSVTVTGPPREPYGKKHLKAVDVNMNKMPDVAMTLAVVALFADGPTAIRDVASWRVKETERMVAIRTELTKLGASVEEGPDYCIITPPEKLNITAIDTYDDHRMAMAFSLAACADVPVTIRDPGCTRKTFPNYFDVLSTFVRN	70.8%	1	9	25	66.7%	0	4	28	16	50.0%	0	13	11	24	22.9%	7	7	4	30	glyphosate concentration of medium in which the E. coli strain was kept in a growing state ([3]; Example 5): up to 20 mM; growth status of transformed Escherichia coli ([3]; medium containing 1 mM glyphosate): showed bacterial plaques; growth status of transformed Escherichia coli ([3]; medium containing 2 mM glyphosate): could grow normally; growth status of transformed Escherichia coli ([3]; medium containing 20 mM glyphosate): could grow normally
